T1: BMV 1a protein, carboxy-terminal flag-tagged version (Brome mosaic virus, UniProt P03588 1-961)
T1 sequence (looked up): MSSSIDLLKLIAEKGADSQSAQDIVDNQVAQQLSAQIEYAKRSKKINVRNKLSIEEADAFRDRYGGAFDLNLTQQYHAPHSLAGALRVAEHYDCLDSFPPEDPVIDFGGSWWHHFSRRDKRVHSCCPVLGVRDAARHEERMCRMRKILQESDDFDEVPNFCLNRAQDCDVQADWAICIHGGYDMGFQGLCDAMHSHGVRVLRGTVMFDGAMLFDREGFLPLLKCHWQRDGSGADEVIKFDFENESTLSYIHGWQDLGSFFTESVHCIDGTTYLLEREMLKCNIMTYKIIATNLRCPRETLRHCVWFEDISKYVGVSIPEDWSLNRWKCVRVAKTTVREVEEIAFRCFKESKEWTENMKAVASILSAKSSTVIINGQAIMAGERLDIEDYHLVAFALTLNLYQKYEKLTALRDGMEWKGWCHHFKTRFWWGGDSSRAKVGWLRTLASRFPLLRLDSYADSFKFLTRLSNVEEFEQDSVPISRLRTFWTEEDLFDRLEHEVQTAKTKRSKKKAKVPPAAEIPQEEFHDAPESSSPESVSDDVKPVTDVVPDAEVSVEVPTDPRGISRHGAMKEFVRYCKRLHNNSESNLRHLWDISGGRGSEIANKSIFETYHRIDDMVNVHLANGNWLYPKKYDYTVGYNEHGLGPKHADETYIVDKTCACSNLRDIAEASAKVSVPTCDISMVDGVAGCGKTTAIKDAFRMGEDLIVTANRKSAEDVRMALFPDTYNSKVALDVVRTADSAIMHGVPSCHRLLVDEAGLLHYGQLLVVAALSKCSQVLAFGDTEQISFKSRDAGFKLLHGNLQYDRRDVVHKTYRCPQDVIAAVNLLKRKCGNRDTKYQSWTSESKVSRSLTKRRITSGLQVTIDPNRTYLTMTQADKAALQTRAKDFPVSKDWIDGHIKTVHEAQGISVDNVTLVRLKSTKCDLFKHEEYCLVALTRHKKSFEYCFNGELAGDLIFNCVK

B1: Lsm1 (natural protein, S. cerevisiae (endogenous in YPH500), UniProt P47017 1-172, looked up)
chain: MSANSKDRNQSNQDAKRQQQNFPKKISEGEADLYLDQYNFTTTAAIVSSVDRKIFVLLRDGRMLFGVLRTFDQYANLILQDCVERIYFSEENKYAEEDRGIFMIRGENVVMLGEVDIDKEDQPLEAMERIPFKEAWLTKQKNDEKRFKEETHKGKKMARHGIVYDFHKSDMY
B2: Pat1 (natural protein, S. cerevisiae (endogenous in YPH500), UniProt P25644 1-796, looked up)
chain: MSFFGLENSGNARDGPLDFEESYKGYGEHELEENDYLNDETFGDNVQVGTDFDFGNPHSSGSSGNAIGGNGVGATARSYVAATAEGISGPRTDGTAAAGPLDLKPMESLWSTAPPPAMAPSPQSTMAPAPAPQQMAPLQPILSMQDLERQQRQMQQQFMNFHAMGHPQGLPQGPPQQQFPMQPASGQPGPSQFAPPPPPPGVNVNMNQMPMGPVQVPVQASPSPIGMSNTPSPGPVVGATKMPLQSGRRSKRDLSPEEQRRLQIRHAKVEKILKYSGLMTPRDKDFITRYQLSQIVTEDPYNEDFYFQVYKIIQRGGITSESNKGLIARAYLEHSGHRLGGRYKRTDIALQRMQSQVEKAVTVAKERPSKLKDQQAAAGNSSQDNKQANTVLGKISSTLNSKNPRRQLQIPRQQPSDPDALKDVTDSLTNVDLASSGSSSTGSSAAAVASKQRRRSSYAFNNGNGATNLNKSGGKKFILELIETVYEEILDLEANLRNGQQTDSTAMWEALHIDDSSYDVNPFISMLSFDKGIKIMPRIFNFLDKQQKLKILQKIFNELSHLQIIILSSYKTTPKPTLTQLKKVDLFQMIILKIIVSFLSNNSNFIEIMGLLLQLIRNNNVSFLTTSKIGLNLITILISRAALIKQDSSRSNILSSPEISTWNEIYDKLFTSLESKIQLIFPPREYNDHIMRLQNDKFMDEAYIWQFLASLALSGKLNHQRIIIDEVRDEIFATINEAETLQKKEKELSVLPQRSQELDTELKSIIYNKEKLYQDLNLFLNVMGLVYRDGEISELK

Key:
[1] = target: T1, BMV 1a protein, carboxy-terminal …; assay: co-IP
[2] = target: T1, BMV 1a protein, carboxy-terminal …; assay: co-IP; remark: listed apart in the source

Binder	fold enrichment compared with “Flag only” controls [1] [fold]	fold enrichment compared with “Flag only” control [2] [fold]
B1	7	2
B2	25	4.5

From article PMC4509936 (RNA, 2015)
